Experimental data: IntAct's records for PubMed 31515488

B1: Transmembrane protein 51 (Homo sapiens), Q9NW97 (parent)
chain: MMAQSKANGSHYALTAIGLGMLVLGVIMAMWNLVPGFSAAEKPTAQGSNKTEVGGGILKSKTFSVAYVLVGAGVMLLLLSICLSIRDKRKQRQGEDLAHVQHPTGAGPHAQEEDSQEEEEEDEEAASRYYVPSYEEVMNTNYSEARGEEQNPRLSISLPSYESLTGLDETTPTSTRADVEASPGNPPDRQNSKLAKRLKPLKVRRIKSEKLHLKDFRINLPDKNVPPPSIEPLTPPPQYDEVQEKAPDTRPPD
partner: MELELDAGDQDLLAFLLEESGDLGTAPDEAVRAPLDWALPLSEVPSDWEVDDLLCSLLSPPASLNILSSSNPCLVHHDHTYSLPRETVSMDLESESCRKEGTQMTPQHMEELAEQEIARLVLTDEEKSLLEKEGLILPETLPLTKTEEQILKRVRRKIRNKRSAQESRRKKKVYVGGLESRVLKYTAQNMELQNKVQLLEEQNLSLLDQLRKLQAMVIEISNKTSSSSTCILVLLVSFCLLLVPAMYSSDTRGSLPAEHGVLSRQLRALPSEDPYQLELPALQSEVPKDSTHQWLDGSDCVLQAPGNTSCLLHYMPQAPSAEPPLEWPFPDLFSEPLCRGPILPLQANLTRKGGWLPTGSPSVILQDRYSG
B2: Guanine nucleotide exchange factor for Rab-3A (Homo sapiens), Q8TBN0 (parent)
chain: MWSGPPQPDQGLPPPLAAVPVPWKSTDPCQGHRESPGALVETSAGEEAQGQEGPAAAQLDVLRLRSSSMEIREKGSEFLKEELHRAQKELKLKDEECERLSKVREQLEQELEELTASLFEEAHKMVREANMKQAASEKQLKEARGKIDMLQAEVTALKTLVITSTPASPNRELHPQLLSPTKAGPRKGHSRHKSTSSTLCPAVCPAAGHTLTPDREGKEVDTILFAEFQAWRESPTLDKTCPFLERVYREDVGPCLDFTMQELSVLVRAAVEDNTLTIEPVASQTLPTVKVAEVDCSSTNTCALSGLTRTCRHRIRLGDSKSHYYISPSSRARITAVCNFFTYIRYIQQGLVRQDAEPMFWEIMRLRKEMSLAKLGFFPQEA
partner: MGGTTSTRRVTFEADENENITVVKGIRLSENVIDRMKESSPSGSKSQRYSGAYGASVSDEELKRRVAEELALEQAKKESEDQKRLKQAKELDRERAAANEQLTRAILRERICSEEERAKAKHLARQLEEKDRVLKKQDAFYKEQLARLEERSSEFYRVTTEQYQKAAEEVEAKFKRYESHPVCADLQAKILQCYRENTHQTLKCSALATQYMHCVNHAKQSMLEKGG
B3: 6-pyruvoyl tetrahydrobiopterin synthase (Homo sapiens), Q03393 (parent)
chain: MSTEGGGRRCQAQVSRRISFSASHRLYSKFLSDEENLKLFGKCNNPNGHGHNYKVVVTVHGEIDPATGMVMNLADLKKYMEEAIMQPLDHKNLDMDVPYFADVVSTTENVAVYIWDNLQKVLPVGVLYKVKVYETDNNIVVYKGE
B4: Cyclin-dependent kinase 2-interacting protein (Homo sapiens), Q9BW66 (parent)
chain: MEAKTLGTVTPRKPVLSVSARKIKDNAADWHNLILKWETLNDAGFTTANNIANLKISLLNKDKIELDSSSPASKENEEKVCLEYNEELEKLCEELQATLDGLTKIQVKMEKLSSTTKGICELENYHYGEESKRPPLFHTWPTTHFYEVSHKLLEMYRKELLLKRTVAKELAHTGDPDLTLSYLSMWLHQPYVESDSRLHLESMLLETGHRAL
partner: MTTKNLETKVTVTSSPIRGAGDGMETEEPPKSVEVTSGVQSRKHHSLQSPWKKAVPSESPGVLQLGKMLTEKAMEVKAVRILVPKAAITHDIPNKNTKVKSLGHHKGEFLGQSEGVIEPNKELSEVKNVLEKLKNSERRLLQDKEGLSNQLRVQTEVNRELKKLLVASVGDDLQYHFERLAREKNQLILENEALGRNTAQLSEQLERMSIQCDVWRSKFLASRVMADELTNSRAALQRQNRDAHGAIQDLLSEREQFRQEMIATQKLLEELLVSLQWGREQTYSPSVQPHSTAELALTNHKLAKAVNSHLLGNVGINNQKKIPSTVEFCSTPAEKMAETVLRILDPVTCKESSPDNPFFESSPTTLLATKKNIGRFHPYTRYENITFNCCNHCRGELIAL
B5: Retinoic acid receptor alpha (Homo sapiens), P10276 (parent)
chain: MASNSSSCPTPGGGHLNGYPVPPYAFFFPPMLGGLSPPGALTTLQHQLPVSGYSTPSPATIETQSSSSEEIVPSPPSPPPLPRIYKPCFVCQDKSSGYHYGVSACEGCKGFFRRSIQKNMVYTCHRDKNCIINKVTRNRCQYCRLQKCFEVGMSKESVRNDRNKKKKEVPKPECSESYTLTPEVGELIEKVRKAHQETFPALCQLGKYTTNNSSEQRVSLDIDLWDKFSELSTKCIIKTVEFAKQLPGFTTLTIADQITLLKAACLDILILRICTRYTPEQDTMTFSDGLTLNRTQMHNAGFGPLTDLVFAFANQLLPLEMDDAETGLLSAICLICGDRQDLEQPDRVDMLQEPLLEALKVYVRKRRPSRPHMFPKMLMKITDLRSISAKGAERVITLKMEIPGSMPPLIQEMLENSEGLDTLSGQPGGGGRDGGGLAPPPGSCSPSLSPSSNRSSPATHSP
partner: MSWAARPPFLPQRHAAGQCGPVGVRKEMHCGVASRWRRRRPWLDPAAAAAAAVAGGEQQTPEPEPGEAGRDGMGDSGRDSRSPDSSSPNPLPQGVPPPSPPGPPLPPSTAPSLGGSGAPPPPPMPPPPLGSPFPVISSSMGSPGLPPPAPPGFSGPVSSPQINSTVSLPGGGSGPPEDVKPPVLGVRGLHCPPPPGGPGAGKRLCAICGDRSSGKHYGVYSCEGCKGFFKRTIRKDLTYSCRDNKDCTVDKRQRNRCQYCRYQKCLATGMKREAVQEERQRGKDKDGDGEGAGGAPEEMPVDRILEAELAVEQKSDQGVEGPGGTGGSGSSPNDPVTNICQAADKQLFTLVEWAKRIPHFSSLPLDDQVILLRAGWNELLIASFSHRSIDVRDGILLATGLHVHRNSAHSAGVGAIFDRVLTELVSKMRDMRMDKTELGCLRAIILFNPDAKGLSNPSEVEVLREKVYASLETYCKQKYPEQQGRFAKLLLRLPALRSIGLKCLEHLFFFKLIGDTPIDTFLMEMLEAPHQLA
B6: LHFPL tetraspan subfamily member 5 protein (Homo sapiens), Q8TAF8 (parent)
chain: MVKLLPAQEAAKIYHTNYVRNSRAVGVMWGTLTICFSVLVMALFIQPYWIGDSVNTPQAGYFGLFSYCVGNVLSSELICKGGPLDFSSIPSRAFKTAMFFVALGMFLIIGSIICFSLFFICNTATVYKICAWMQLAAATGLMIGCLVYPDGWDSSEVRRMCGEQTGKYTLGHCTIRWAFMLAILSIGDALILSFLAFVLGYRQDKLLPDDYKADGTEEV
partner: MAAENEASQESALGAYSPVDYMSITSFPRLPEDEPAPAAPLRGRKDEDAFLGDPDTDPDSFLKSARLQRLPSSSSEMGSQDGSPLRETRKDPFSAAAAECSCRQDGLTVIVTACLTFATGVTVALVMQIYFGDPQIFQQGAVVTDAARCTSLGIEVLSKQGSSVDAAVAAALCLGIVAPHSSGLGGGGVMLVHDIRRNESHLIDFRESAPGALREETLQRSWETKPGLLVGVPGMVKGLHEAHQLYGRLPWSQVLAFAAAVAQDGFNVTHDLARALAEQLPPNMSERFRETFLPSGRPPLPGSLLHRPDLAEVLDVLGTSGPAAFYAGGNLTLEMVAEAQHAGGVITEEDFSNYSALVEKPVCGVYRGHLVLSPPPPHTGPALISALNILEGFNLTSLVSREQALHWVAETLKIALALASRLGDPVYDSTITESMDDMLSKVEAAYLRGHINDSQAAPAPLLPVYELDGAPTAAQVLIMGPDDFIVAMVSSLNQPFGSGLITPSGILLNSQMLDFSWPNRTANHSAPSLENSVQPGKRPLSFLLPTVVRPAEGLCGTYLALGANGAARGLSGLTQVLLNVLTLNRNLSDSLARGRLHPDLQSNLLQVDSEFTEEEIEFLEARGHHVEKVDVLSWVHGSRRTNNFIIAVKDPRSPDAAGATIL
B7: Septin-12 (Homo sapiens), Q8IYM1 (parent)
chain: MDPLRRSPSPCLSSQPSSPSTPPCEMLGPVGIEAVLDQLKIKAMKMGFEFNIMVVGQSGLGKSTMVNTLFKSKVWKSNPPGLGVPTPQTLQLHSLTHVIEEKGVKLKLTVTDTPGFGDQINNDNCWDPILGYINEQYEQYLQEEILITRQRHIPDTRVHCCVYFVPPTGHCLRPLDIEFLQRLCRTVNVVPVIARADSLTMEEREAFRRRIQQNLRTHCIDVYPQMCFDEDINDKILNSKLRDRIPFAVVGADQEHLVNGRCVLGRKTKWGIIEVENMAHCEFPLLRDLLIRSHLQDLKDITHNIHYENYRVIRLNESHLLPRGPGWVNLAPASPGQLTTPRTFKVCRGAHDDSDDEF
partner: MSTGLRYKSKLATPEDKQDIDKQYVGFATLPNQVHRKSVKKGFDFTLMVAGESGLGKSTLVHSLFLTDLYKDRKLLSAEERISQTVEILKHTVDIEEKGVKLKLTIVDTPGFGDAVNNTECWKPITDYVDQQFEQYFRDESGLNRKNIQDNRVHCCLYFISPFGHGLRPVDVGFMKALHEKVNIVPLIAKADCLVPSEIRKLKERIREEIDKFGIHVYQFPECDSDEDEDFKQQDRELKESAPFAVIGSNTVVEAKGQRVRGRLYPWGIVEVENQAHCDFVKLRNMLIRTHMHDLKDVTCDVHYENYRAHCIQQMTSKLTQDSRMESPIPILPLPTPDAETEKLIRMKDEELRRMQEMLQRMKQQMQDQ

Variants of: B1
Conditions: with creb3_human CREB3, O43889

Row | effect of a mutation on the interaction | Variant
1 | with no effect | P237L

Variants of: B2
Conditions: with mic19_human CHCHD3, Q9NX63

Row | effect of a mutation on the interaction | Variant
2 | with no effect | Q49R
3 | with no effect | S190P

Variants of: B3
Conditions: with c1qc_human C1QC

Row | effect of a mutation on the interaction | Variant
4 | disrupting interaction strength | R25Q
5 | disrupting interaction strength | R9C
6 | disrupting interaction strength | T106M

Variants of: B3
Conditions: with ntaq1_human NTAQ1, Q96HA8

Row | effect of a mutation on the interaction | Variant
7 | disrupting interaction strength | R25Q
8 | disrupting interaction strength | R9C
9 | disrupting interaction strength | T106M
10 | disrupting interaction strength | P123S
11 | disrupting interaction strength | T67M

Variants of: B3
Conditions: with fxr2_human FXR2, P51116

Row | effect of a mutation on the interaction | Variant
12 | disrupting interaction strength | R25Q
13 | disrupting interaction strength | R9C
14 | disrupting interaction strength | T106M

Variants of: B3
Conditions: with sdcb1_human SDCBP

Row | effect of a mutation on the interaction | Variant
15 | disrupting interaction strength | T106M

Variants of: B4
Conditions: with go45_human BLZF1, Q9H2G9

Row | effect of a mutation on the interaction | Variant
16 | with no effect | R164H

Variants of: B4
Conditions: with go45_human BLZF1, Q9H2G9
Remark: another data set of the same source

Row | effect of a mutation on the interaction | Variant
17 | with no effect | D177N

Variants of: B5
Conditions: with rxrb_human RXRB

Row | effect of a mutation on the interaction | Variant
18 | with no effect | P318R

Variants of: B6
Conditions: with ggt7_human GGT7, Q9UJ14

Row | effect of a mutation on the interaction | Variant
19 | with no effect | K205N

Variants of: B7
Conditions: with sept5_human SEPTIN5, Q99719

Row | effect of a mutation on the interaction | Variant
20 | with no effect | K73N
21 | disrupting interaction strength | T111K
22 | disrupting interaction strength | V162M
